Data published in US20220089727A1 (CHANGCHUN GENESCIENCE PHARMACEUTICAL, published 2022).
Substitutions are numbered along the chain they refer to.

What was measured:
[1] = target: T1, CD47 on the surface of Jurkat cells (human, UniProt Q08722 19-323); experiment: cell-based or functional assay
[2] = target: T2, human CD47ECD-linker peptide-7his (human, UniProt Q08722 19-139); experiment: ELISA, hCD47-his coated at 1 µg/ml, cell culture supernatant
T2 construct: also called hCD47-his; human CD47-his

[3] = target: T1, CD47 on the surface of Jurkat cells; experiment: cell-based or functional assay; remark: listed apart in the source
[4] = target: T3, human CD47 (analyte in the Biacore assay) (human, UniProt Q08722 19-139, limits assumed); experiment: SPR (Biacore T200), antibody captured by anti-mouse Fc, human CD47 as analyte
T3 construct: also called human CD47 protein

[5] = target: T4, human CD47-linker peptide-hIgG1Fc (human); experiment: competition ELISA: CD47-hFc coated, antibody titrated against human SIRP-his (competitor), anti-His detection
T4 construct: also called Human CD47-hFc; human CD47-hFc

[6] = target: T4, human CD47-linker peptide-hIgG1Fc; experiment: competition ELISA: human CD47-hFc coated, blocked ligand human SIRP-his
[7] = target: T5, monkey CD47ECD-linker peptide-7his (monkey); experiment: ELISA, monkey CD47-his coated at 1 µg/ml, cell culture supernatant
T5 construct: also called Monkey CD47-his
T5 chain: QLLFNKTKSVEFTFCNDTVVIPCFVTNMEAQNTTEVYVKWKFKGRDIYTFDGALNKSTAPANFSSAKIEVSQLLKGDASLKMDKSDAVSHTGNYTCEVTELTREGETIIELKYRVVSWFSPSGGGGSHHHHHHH

[8] = target: T1, CD47 on the surface of Jurkat cells; experiment: flow cytometry on Jurkat cells, hybridoma supernatant, anti-mouse IgG Fc FITC

B1: 059-1.20.1 (antibody, mouse IgG1, V domains shown)
VH: EVQLQQSGPELVKPGASVNMSCKASGYTFTNYFLHWVKQKPGQGLEWIGYINPYNDGTNYNENFKGKATLTSDKSSSTAYMELSSLTSEDSAVYYCAKGGWFSMDYWGQGTSVTVSS
VL: DVVMTQTPLSLPVSLGDQASISCRSSQSLVHSNGKTYLQWYLQKPGQSPKLLIYKVSNRFSGVPDRFSGSGSGTDFTLKISRVEAEDLGVYFCSQSTHVYTFGGGTKLEIK
notes: also called 059-1.20.1 purified antibody
With B1 the “Apoptotic rate (%)” value [1] was 33%, the OD450 [2] was 4 OD450 and the phagocytic index [3] was 43 Jurkat cells phagocytized per 100 macrophages. The Kd [4] was 25.3 nM, the koff [4] was 0.00548 s⁻¹ and the kon [4] was 217000 M⁻¹ s⁻¹. For the same binder, the EC50 [5] was 1190 nM, the “IC50 (read off the curve)” value [6] was about 1 µg/mL and the OD450 [7] was 4 OD450. It also gave an MFI [8] of 15300 MFI.

B2: 059-1.82.1 (antibody, mouse IgG3, V domains shown)
VH: B1 VH with N19K, F33V, L34M, N63K
VL: B1 VL
With B2 the “Apoptotic rate (%)” value [1] was 24%, the OD450 [2] was 4 OD450 and the phagocytic index [3] was 74 Jurkat cells phagocytized per 100 macrophages. The Kd [4] was 14.2 nM, the koff [4] was 0.00364 s⁻¹ and the kon [4] was 256000 M⁻¹ s⁻¹. The EC50 [5] was 1030 nM, the “IC50 (read off the curve)” value [6] was about 1 µg/mL and the OD450 [7] was 3.9 OD450. For the same binder, the MFI [8] was 9550 MFI.

B3: 059-1.30.1 (antibody, mouse IgG1, V domains shown)
VH: EVQLQQSGPELVKPGASVRMSCKASGYTFTNYVMHWVKQKPGQGLEWIGYINPYNDGTKYSEKFKGKATLTSDKSSITAYMELSSLTSEDSAVYYCAKGGLFTFDYWGQGTTLTVSS
VL: DVVMTQTPLSLPVSLGDQASISCRSSQSLVHSKGNTYLHWYLQKPGQSPKLLIYRVSNRFSGVPDRFSGSGSGTDFTLKISRVEAEDLGVYFCSQSTHVPFTFGSGTKLEIK
notes: also called 059-1.30.1 purified antibody
B3 was tested, and the “Apoptotic rate (%)” value [1] was 48%, the OD450 [2] was 4 OD450 and the phagocytic index [3] was 70 Jurkat cells phagocytized per 100 macrophages. For the same binder, the Kd [4] was 30.1 nM, the koff [4] was 0.0128 s⁻¹ and the kon [4] was 424000 M⁻¹ s⁻¹. For the same binder, the EC50 [5] was 1030 nM, the “IC50 (read off the curve)” value [6] was about 1 µg/mL and the OD450 [7] was 4 OD450. It also gave an MFI [8] of 9950 MFI.

B4: 059-1.43.1 (antibody, mouse IgG1, V domains shown)
VH: QVQLQQSGAELVRPGASVTLSCKASGYTFTDYEMHWVKQTPVHGLEWIGAIDPETGGTAYNQKFKGKATLTADKSSSTAYMELRSLTSEDSAVYYCTRGTPYAMDYWGQGTSVTVSS
VL: B3 VL with K33N, R55K, F101W, S105G
notes: also called 059-1.43.1 purified antibody
In the case of B4, the “Apoptotic rate (%)” value [1] is reported as 37%, the OD450 [2] is reported as 4 OD450 and the phagocytic index [3] is reported as 79 Jurkat cells phagocytized per 100 macrophages. The Kd [4] was 28.3 nM, the koff [4] was 0.00666 s⁻¹ and the kon [4] was 236000 M⁻¹ s⁻¹. For the same binder, the EC50 [5] was 850 nM, the “IC50 (read off the curve)” value [6] was about 0.9 µg/mL and the OD450 [7] was 4 OD450. It also gave an MFI [8] of 18500 MFI.

B5: 059-1.51.2 (antibody, mouse IgM, V domains shown)
VH: EVQLQQSGPELVKPGASVKMSCKASGYTFTNYVMHWMKQKPGQGLEWIGYINPYNDDTKYNEKFKDRATLTSDKSSSTAYMELSSLTSEDSAVYYCAKGGYYSMDYWGQGTSVTVSS
VL: B3 VL with R55K
notes: Mouse hybridoma antibody; light chain type kappa
In the case of B5, the OD450 [2] is reported as 0.771 OD450, the Kd [4] is reported as 27.3 nM and the koff [4] is reported as 0.0101 s⁻¹. It also gave a kon [4] of 370000 M⁻¹ s⁻¹, an OD450 [7] of 0.634 OD450 and an MFI [8] of 144 MFI.

B6: 059-1.11.1 (antibody, mouse IgM, V domains shown)
VH: B4 VH
VL: B3 VL with K33N, R55K, D65E, F101W, S105G
notes: Mouse hybridoma antibody; the subclass paragraph gives the light chain type as kappa; also called 059-1.11.1 purified antibody
Work on B6 yielded an OD450 [2] of 3.67 OD450, a Kd [4] of 15.5 nM and a koff [4] of 0.00402 s⁻¹. The kon [4] was 260000 M⁻¹ s⁻¹, the EC50 [5] was 2340 nM and the OD450 [7] was 4 OD450. The MFI [8] was 6630 MFI.

B7: 059-1.100.5 (antibody, mouse IgM, V domains shown)
VH: B4 VH with K63N
VL: B3 VL with K33N, R55K, F101W, S105G
notes: Mouse hybridoma antibody; light chain type kappa; also called 059-1.100.5 purified antibody
B7 was tested, and the OD450 [2] was 0.81 OD450, the Kd [4] was 44 nM and the koff [4] was 0.0069 s⁻¹. It also gave a kon [4] of 157000 M⁻¹ s⁻¹, an OD450 [7] of 0.617 OD450 and an MFI [8] of 216 MFI.

B8: B6H12 (commercialized CD47 antibody, purchased from Abcam, catalog No. ab3283) (antibody)
chain: EVQLVESGGDLVKPGGSLKLSCAASGFTFSGYGMSWVRQTPDKRLEWVATITSGGTYTYYPDSVKGRFTISRDNAKNTLYLQIDSLKSEDTAIYFCARSLAGNAMDYWGQGTSVTVSSGGGGSGGGGSGGGGSDIVMTQSPATLSVTPGDRVSLSCRASQTISDYLHWYQQKSHESPRLLIKFASQSISGIPSRFSGSGSGSDFTLSINSVEPEDVGVYYCQNGHGFPRTFGGGTKLEIK
B8 was tested, and the “Apoptotic rate (%)” value [1] was 8%, the phagocytic index [3] was 20 Jurkat cells phagocytized per 100 macrophages and the Kd [4] was 27.5 nM. For the same binder, the koff [4] was 0.00364 s⁻¹, the kon [4] was 132000 M⁻¹ s⁻¹ and the “IC50 (read off the curve)” value [6] was about 1 µg/mL.
